The target of this experiment is IrmA secreted from E. coli MG1655 carrying a plasmid encoding irmA (strain MS5667) (Escherichia coli). Briefly: native gel or EMSA. (A gel shift assay detects complexes by their altered migration in electrophoresis.)

The stoichiometry N is the number of molecules, sites or subunits per partner or assembly. “IrmA secreted from E. coli MG1655 carrying a plasmid encoding irmA (strain MS5667) (natural protein)” showed a stoichiometry N of 2.
